Kd data for one molecule are collected here from paper PMC12148588 (eBioMedicine, 2025).

A word on the Kd: it is the free concentration of one partner at which half of the binding sites on the other are occupied at equilibrium, for simple one-to-one binding.

The test has as its target T1, SARS-CoV-2 RBD of the VOC Delta (Acro Biosystems SPD-C82Ed-25) (SARS-CoV-2, VOC Delta (B.1.617.2), strain).
T1 construct: source: bought: Acro Biosystems
The test is described as follows: SPR; Biacore 8K+, […]; 10 mM HEPES pH 7.4, 150 mM NaCl, 3 mM EDTA, 0.05% Tween 20; […]. The following applies: both partners purified. A general note: Surface plasmon resonance follows binding to a sensor surface in real time, without labels.

B1: MB025_A09Lgl (antibody, V domains shown)
VH: EVQLVESGGGLVQPGGSLRLSCAASGFTVSSNYMSWVRQAPGKGLEWVSVIYSGGSTYYADSVKGRFTISRHNSKNTLYLQMNSLRAEDTAVYYCARGVDYRTNRTEGGAFDIWGQGTMVTVSS
VL: QSALTQPASVSGSPGQSITISCTGTSSDVGSYNLVSWYQQHPGKAPKLMIYEGSKRPSGVSNRFSGSKSGNTASLTISGLQAEDEADYYCCSYAGSSTWMFGGGTKLTVL
On to B1, for which the Kd stood at 731 nM.
